Data reported in patent publication US20190071490A1, “Preventing Post-Ictal Headaches” (Beth Israel Deaconess Medical Center, Inc., priority 2017, published 2019).

T1: rat α-CGRP (Rattus norvegicus, UniProt P01256)
T1 construct: rat α (1-37); purchased GenScript Corporation or Global Peptide Services
T1 sequence (P01256 83-119 limits assumed): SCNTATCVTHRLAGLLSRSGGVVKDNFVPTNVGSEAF

T2: human α-CGRP (Homo sapiens, UniProt P06881)
T2 construct: 1-37 (WT); purchased GenScript Corporation or Global Peptide Services
T2 sequence (P06881 83-119 limits assumed): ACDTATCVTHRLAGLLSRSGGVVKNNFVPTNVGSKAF


Legend:
rat α-CGRP = biological target: T1, rat α-CGRP; assay: Biacore SPR affinity of Fab fragments to N-biotinylated rat α-CGRP on SA chip; assay type: binding; details: 37° C., screening mode except underlined values
Protocol: (§1) Affinity determination of the Fabs. Affinities of the anti-CGRP monoclonal antibodies were determined at either 25° C. or 37° C. using the BIACORE3000™ surface plasmon resonance (SPR) system (Biacore, INC, Piscataway N.J.) with the manufacture's own running buffer, HBS-EP (10 mM HEPES pH 7.4, 150 mM NaCl, 3 mM EDTA, 0.005% v/v polysorbate P20). Affinity was determined by capturing N-terminally biotinylated CGRP peptides (custom ordered from GenScript Corporation, New Jersey or Global Peptide Services, Colorado) via pre-immobilized streptavidin on SA chip and measuring binding kinetics of antibody Fab titrated across the CGRP surface. Biotinylated CGRP was diluted into HBS-EP and injected over the chip at a concentration of less than 0.001 mg/ml. Using variable flow time across the individual chip channels, two ranges of antigen density were achieved: <50 response units (RU) for detailed kinetic studies and about 800 RU for concentration studies and screening. […] After each binding cycle, surfaces were regenerated with 25 mM NaOH in 25% v/v ethanol, which was tolerated over hundreds of cycles. Kinetic association rate (kon) and dissociation rate (koff) were obtained simultaneously by fitting the data to a 1:1 Langmuir binding model (Karlsson et al. (1994). Methods Enzymology 6. 99-110) using the BIAevaluation program. Global equilibrium dissociation constants (KD) or “affinities” were calculated from the ratio KD=koff/kon.
(§2) Biacore assay for affinity determination. […] All Biacore assays were conducted in HBS-EP running buffer (10 mM HEPES pH 7.4, 150 mM NaCl, 3 mM EDTA, 0.005% v/v polysorbate P20). CGRP surfaces were prepared by diluting the N-biotinylated CGRP to a concentration of less than 0.001 mg/mL into HBS-EP buffer and injecting it across the SA sensor chip using variable contact times. Low capacity surfaces, corresponding to capture levels <50 response units (RU) were used for high-resolution kinetic studies, whereas high capacity surfaces (about 800 RU of captured CGRP) were used for concentration studies, screening, and solution affinity determinations. […] Samples were typically injected for 1 minute at 100 μL/min and dissociation times of at least 10 minutes were allowed. After each binding cycle, surfaces were regenerated with 25 mM NaOH in 25% v/v ethanol, which was tolerated over hundreds of cycles. An entire titration series (typically generated in duplicate) was fit globally to a 1:1 Langmuir binding model using the BIAevaluation program. This returned a unique pair of association and dissociation kinetic rate constants (respectively, kon and koff) for each binding interaction, whose ratio gave the equilibrium dissociation constant (KD=koff/kon).
(§3) High-resolution analysis of binding interactions with extremely slow off rates. […] The protocol described above was used with the following modifications. The association rate constant (kon) was determined by injecting a 2-fold titration series (in duplicate) spanning 550 nM-1 nM for 30 seconds at 100 μL/min and allowing only a 30 second dissociation phase. The dissociation rate constant (koff) was determined by injecting three concentrations (high, medium, and low) of the same titration series in duplicate for 30 seconds and allowing a 2-hour dissociation phase. The affinity (KD) of each interaction was obtained by combining the kon and koff values obtained in both types of experiments, as shown in Table 4.

human α-CGRP = biological target: T2, human α-CGRP; assay: Biacore SPR affinity of Fab fragments to N-biotinylated human α-CGRP on SA chip; assay type: binding; details: 37° C., screening mode except underlined values
Protocol: as §1, §2, §3

Row | Molecule | α-rat koff (rat α-CGRP) [s⁻¹] | α-human koff (human α-CGRP) [s⁻¹]
1 | M66: G1 variant; L1 R28N T30G; L2 L561; H2 E54K A57E; HC-FW3 L99T A100V (antibody, V domains shown) VH: EVQLVESGGGLVQPGGSLRLSCAASGFTFSNYWISWVRQAPGKGLEWVAEIRSKSDESATHYAEAVKGRFTISRDNAKNSLYLQMNSLRAEDTAVYYCTVYFDYGLAIQNYWGQGTLVTVSS VL: EIVLTQSPATLSLSPGERATLSCKASKNVGTYVSWYQQKPGQAPRLLIYGASNRYIGIPARFSGSGSGTDFTLTISSLEPEDFAVYYCSQSYNYPYTFGQGTKLEIK | 0.00511 | 0.00052
2 | M70: G1 variant; L1 R28N T30G; L2 L561; H2 E54K A57S; HC-FW3 L99T A100V (antibody, V domains shown) VH: EVQLVESGGGLVQPGGSLRLSCAASGFTFSNYWISWVRQAPGKGLEWVAEIRSKSDSSATHYAEAVKGRFTISRDNAKNSLYLQMNSLRAEDTAVYYCTVYFDYGLAIQNYWGQGTLVTVSS VL: EIVLTQSPATLSLSPGERATLSCKASKNVGTYVSWYQQKPGQAPRLLIYGASNRYIGIPARFSGSGSGTDFTLTISSLEPEDFAVYYCSQSYNYPYTFGQGTKLEIK | 0.00607 | 0.000559
3 | M68: G1 variant; L1 R28N T30G; L2 L561; H2 E54K A57N S58D E64D; HC-FW3 L99T A100V (antibody, V domains shown) VH: EVQLVESGGGLVQPGGSLRLSCAASGFTFSNYWISWVRQAPGKGLEWVAEIRSKSDNDATHYADAVKGRFTISRDNAKNSLYLQMNSLRAEDTAVYYCTVYFDYGLAIQNYWGQGTLVTVSS VL: EIVLTQSPATLSLSPGERATLSCKASKNVGTYVSWYQQKPGQAPRLLIYGASNRYIGIPARFSGSGSGTDFTLTISSLEPEDFAVYYCSQSYNYPYTFGQGTKLEIK | 0.00676 | 0.000428
4 | M75: G1 variant; L1 R28N T30G; L2 L56S; H2 E54K A57V; HC-FW3 L99T A100V (antibody, V domains shown) VH: EVQLVESGGGLVQPGGSLRLSCAASGFTFSNYWISWVRQAPGKGLEWVAEIRSKSDVSATHYAEAVKGRFTISRDNAKNSLYLQMNSLRAEDTAVYYCTVYFDYGLAIQNYWGQGTLVTVSS VL: EIVLTQSPATLSLSPGERATLSCKASKNVGTYVSWYQQKPGQAPRLLIYGASNRYSGIPARFSGSGSGTDFTLTISSLEPEDFAVYYCSQSYNYPYTFGQGTKLEIK | 0.0187 | 0.00116
5 | M72: G1 variant; L1 R28N T30G; L2 L56S; H2 E54K; HC-FW3 L99T A100V (antibody, V domains shown) VH: EVQLVESGGGLVQPGGSLRLSCAASGFTFSNYWISWVRQAPGKGLEWVAEIRSKSDASATHYAEAVKGRFTISRDNAKNSLYLQMNSLRAEDTAVYYCTVYFDYGLAIQNYWGQGTLVTVSS VL: EIVLTQSPATLSLSPGERATLSCKASKNVGTYVSWYQQKPGQAPRLLIYGASNRYSGIPARFSGSGSGTDFTLTISSLEPEDFAVYYCSQSYNYPYTFGQGTKLEIK | 0.00395 | 0.0004

Further lines, results first:

Row | α-rat koff (rat α-CGRP) [s⁻¹] | α-human koff (human α-CGRP) [s⁻¹] | Molecule
6 | 0.00407 | 0.000803 | M65: G1 variant; L1 R28N T30G; L2 G50A L56I; H2 E54K A57C; HC-FW3 L99T A100V (antibody, V domains shown) VH: EVQLVESGGGLVQPGGSLRLSCAASGFTFSNYWISWVRQAPGKGLEWVAEIRSKSDCSATHYAEAVKGRFTISRDNAKNSLYLQMNSLRAEDTAVYYCTVYFDYGLAIQNYWGQGTLVTVSS VL: EIVLTQSPATLSLSPGERATLSCKASKNVGTYVSWYQQKPGQAPRLLIYAASNRYIGIPARFSGSGSGTDFTLTISSLEPEDFAVYYCSQSYNYPYTFGQGTKLEIK
7 | 0.00603 | 0.000597 | M74: G1 variant; L1 R28N T30G; L2 L56S; H2 E54K A57S; HC-FW3 L99T A100V (antibody, V domains shown) VH: EVQLVESGGGLVQPGGSLRLSCAASGFTFSNYWISWVRQAPGKGLEWVAEIRSKSDSSATHYAEAVKGRFTISRDNAKNSLYLQMNSLRAEDTAVYYCTVYFDYGLAIQNYWGQGTLVTVSS VL: EIVLTQSPATLSLSPGERATLSCKASKNVGTYVSWYQQKPGQAPRLLIYGASNRYSGIPARFSGSGSGTDFTLTISSLEPEDFAVYYCSQSYNYPYTFGQGTKLEIK
8 | 0.00171 | 0.00082 | M67: G1 variant; L1 R28N T30G; L2 L561; H2 E54K A57F; HC-FW3 L99T A100V (antibody, V domains shown) VH: EVQLVESGGGLVQPGGSLRLSCAASGFTFSNYWISWVRQAPGKGLEWVAEIRSKSDFSATHYAEAVKGRFTISRDNAKNSLYLQMNSLRAEDTAVYYCTVYFDYGLAIQNYWGQGTLVTVSS VL: EIVLTQSPATLSLSPGERATLSCKASKNVGTYVSWYQQKPGQAPRLLIYGASNRYIGIPARFSGSGSGTDFTLTISSLEPEDFAVYYCSQSYNYPYTFGQGTKLEIK
9 | 0.00181 | 0.000733 | M69: G1 variant; L1 R28N T30G; L2 L561; H2 E54K A57N S58E; HC-FW3 L99T A100V (antibody, V domains shown) VH: EVQLVESGGGLVQPGGSLRLSCAASGFTFSNYWISWVRQAPGKGLEWVAEIRSKSDNEATHYAEAVKGRFTISRDNAKNSLYLQMNSLRAEDTAVYYCTVYFDYGLAIQNYWGQGTLVTVSS VL: EIVLTQSPATLSLSPGERATLSCKASKNVGTYVSWYQQKPGQAPRLLIYGASNRYIGIPARFSGSGSGTDFTLTISSLEPEDFAVYYCSQSYNYPYTFGQGTKLEIK
10 | 0.00116 | 0.000364 | M76: G1 variant; L1 R28N T30S; L2 G50A L56T; H2 A57G; HC-FW3 L99T A100V (antibody, V domains shown) VH: EVQLVESGGGLVQPGGSLRLSCAASGFTFSNYWISWVRQAPGKGLEWVAEIRSESDGSATHYAEAVKGRFTISRDNAKNSLYLQMNSLRAEDTAVYYCTVYFDYGLAIQNYWGQGTLVTVSS VL: EIVLTQSPATLSLSPGERATLSCKASKNVSTYVSWYQQKPGQAPRLLIYAASNRYTGIPARFSGSGSGTDFTLTISSLEPEDFAVYYCSQSYNYPYTFGQGTKLEIK
11 | 0.00212 | 0.00128 | M71: G1 variant; L1 R28N T30G; L2 L561; H2 E54K A57Y; HC-FW3 L99T A100V (antibody, V domains shown) VH: EVQLVESGGGLVQPGGSLRLSCAASGFTFSNYWISWVRQAPGKGLEWVAEIRSKSDYSATHYAEAVKGRFTISRDNAKNSLYLQMNSLRAEDTAVYYCTVYFDYGLAIQNYWGQGTLVTVSS VL: EIVLTQSPATLSLSPGERATLSCKASKNVGTYVSWYQQKPGQAPRLLIYGASNRYIGIPARFSGSGSGTDFTLTISSLEPEDFAVYYCSQSYNYPYTFGQGTKLEIK
12 | 0.003 | 0.000255 | M73: G1 variant; L1 R28N T30G; L2 L56S; H2 E54K A57N S58Y E64D; HC-FW3 L99T A100V (antibody, V domains shown) VH: EVQLVESGGGLVQPGGSLRLSCAASGFTFSNYWISWVRQAPGKGLEWVAEIRSKSDNYATHYADAVKGRFTISRDNAKNSLYLQMNSLRAEDTAVYYCTVYFDYGLAIQNYWGQGTLVTVSS VL: EIVLTQSPATLSLSPGERATLSCKASKNVGTYVSWYQQKPGQAPRLLIYGASNRYSGIPARFSGSGSGTDFTLTISSLEPEDFAVYYCSQSYNYPYTFGQGTKLEIK
